Test results: patent US20050153894A1, “p21 peptides” (Cyclacel Limited, priority 1999, published 2005)
Square brackets hold non-standard residues; d marks the D form. Ends that are not written are not given here. Phg = N[C@H](C(=O)O)c1ccccc1; Tle = CC(C)(C)[C@H](N)C(=O)O; Nle = CCCC[C@H](N)C(=O)O; Nva = CCC[C@H](N)C(=O)O

Key:
CDK2/cyclin A = CDK2/cyclin A (Homo sapiens, UniProt P20248); assay: CDK2/cyclin A kinase assay, substrate pRb(773-928); assay type: biochemical; details: relative to H-His-Ala-Lys-Arg-Arg-Leu-Ile-Phe-NH2 (=1), pRb substrate, [ATP] = 100 μM
Text: Reactions were stopped on ice, followed by filtration through p81 filterplates (Whatman Polyfiltronics, Kent, UK).

Cyclin A = Cyclin A (Homo sapiens, UniProt P20248); assay: Cyclin A binding assay, immobilised biotinyl-Ahx-[…]NH2; details: relative to H-His-Ala-Lys-Arg-Arg-Leu-Ile-Phe-NH2 (=1)
Experimental: This was added to each well (100 μL). The plate was incubated for 1 h at room temperature with constant shaking. The plate was washed once quickly with TBS/BSA buffer (200 μL), followed by three more washes with TBS/BSA buffer (200 μL) for 5 min each. Serial dilutions of test peptides were prepared in a new plate (50 μL in each well). Cyclin A was diluted to 5 μg/50 μL with TBS/BSA buffer and this was then added to each well (50 μL). The solutions were mixed thoroughly with a pipette (5-6 times), before being incubated for 30 min at room temperature. This reaction mixture was then transferred to the biotinylated peptide: streptavidin-coated plate and incubated for 1 h at room temperature with constant shaking. The plate was washed once quickly with TBS/BSA buffer (200 μL), followed by three more washes with TBS/BSA buffer (200 μL) for 5 min each. The cyclin A antibody (Santa Cruz polyclonal) solution was diluted 1:200 with TBS/BSA buffer and this was then added to each well of the plate (100 μL. The plate was incubated for 1 h at room temperature with constant shaking. The plate was washed once quickly with TBS/BSA buffer (200 μl), followed by three more washes with TBS/BSA buffer (200 μL) for 5 min each. The anti-rabbit secondary antibody (goat anti-rabbit IgG peroxidase conjugate) was diluted 1:10,000 with TBS/BSA and this was then added to each well of the plate (100 μL). The plate was incubated for 1 h at room temperature with constant shaking. The plate was washed once quickly with TBS/BSA buffer (200 μL), followed by three more washes with TBS/BSA buffer (200 μL) for 5 min each. To each well was added the TMB-ELISA reagent (Pierce 1-Step™ Turbo TMB-ELISA; 100 μL) and the plate incubated for 1 min with constant shaking. The reaction was then quenched by the addition of 2 M aqueous H2SO4 (100 μL, each well). The UV absorbance of the each solution was measured spectrophotometrically at 450 nm. IC50 values were calculated from dose-response curves.

Cyclin A, sequence (P20248 whole entry): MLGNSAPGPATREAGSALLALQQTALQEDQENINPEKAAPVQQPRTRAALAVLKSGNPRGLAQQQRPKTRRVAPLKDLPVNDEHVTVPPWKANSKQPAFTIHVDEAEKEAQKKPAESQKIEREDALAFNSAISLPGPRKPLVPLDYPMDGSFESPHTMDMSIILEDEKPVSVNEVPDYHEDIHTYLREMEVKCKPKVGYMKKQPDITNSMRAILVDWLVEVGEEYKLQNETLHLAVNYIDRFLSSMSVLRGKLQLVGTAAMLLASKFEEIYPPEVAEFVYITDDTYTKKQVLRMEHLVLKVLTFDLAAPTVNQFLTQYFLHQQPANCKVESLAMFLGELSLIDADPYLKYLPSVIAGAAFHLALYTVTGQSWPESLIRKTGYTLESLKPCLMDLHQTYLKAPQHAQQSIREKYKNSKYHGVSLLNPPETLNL

H-His-Ala-Lys-Arg-Arg-Leu-Nle Phe-NH2 (H-HAKRRL[Nle]F-NH2; SMILES CCCC[C@H](NC(=O)[C@H](CC(C)C)NC(=O)[C@H](CCCNC(=N)N)NC(=O)[C@H](CCCNC(=N)N)NC(=O)[C@H](CCCCN)NC(=O)[C@H](C)NC(=O)[C@@H](N)Cc1c[nH]cn1)C(=O)N[C@@H](Cc1ccccc1)C(N)=O)
Relative activity Kinase Inhibition (CDK2/cyclin A; Ile158 substitutions): 0.4 | Relative activity Cyclin A Binding (Cyclin A; Ile158 substitutions): 0.3

H-His-Ala-Lys-Arg-Arg-Leu-Nva Phe-NH2 (H-HAKRRL[Nva]F-NH2; SMILES CCC[C@H](NC(=O)[C@H](CC(C)C)NC(=O)[C@H](CCCNC(=N)N)NC(=O)[C@H](CCCNC(=N)N)NC(=O)[C@H](CCCCN)NC(=O)[C@H](C)NC(=O)[C@@H](N)Cc1c[nH]cn1)C(=O)N[C@@H](Cc1ccccc1)C(N)=O)
Relative activity Kinase Inhibition (CDK2/cyclin A; Ile158 substitutions): 0.2 | Relative activity Cyclin A Binding (Cyclin A; Ile158 substitutions): 0.6

H-His-Ala-Lys-Arg-Arg-Nle-Ile Phe-NH2 (H-HAKRR[Nle]IF-NH2; SMILES CCCC[C@H](NC(=O)[C@H](CCCNC(=N)N)NC(=O)[C@H](CCCNC(=N)N)NC(=O)[C@H](CCCCN)NC(=O)[C@H](C)NC(=O)[C@@H](N)Cc1c[nH]cn1)C(=O)N[C@H](C(=O)N[C@@H](Cc1ccccc1)C(N)=O)[C@@H](C)CC)
Relative activity Kinase Inhibition (CDK2/cyclin A; Leu157 substitutions): <0.1 | Relative activity Cyclin A Binding (Cyclin A; Leu157 substitutions): <0.1

H-His-Ala-Lys-Arg-Arg-Nva-Ile Phe-NH2 (H-HAKRR[Nva]IF-NH2; SMILES CCC[C@H](NC(=O)[C@H](CCCNC(=N)N)NC(=O)[C@H](CCCNC(=N)N)NC(=O)[C@H](CCCCN)NC(=O)[C@H](C)NC(=O)[C@@H](N)Cc1c[nH]cn1)C(=O)N[C@H](C(=O)N[C@@H](Cc1ccccc1)C(N)=O)[C@@H](C)CC)
Relative activity Kinase Inhibition (CDK2/cyclin A; Leu157 substitutions): <0.1 | Relative activity Cyclin A Binding (Cyclin A; Leu157 substitutions): <0.1

H-His-Ala-Lys-Arg-Arg-Phe-Ile Phe-NH2 (H-HAKRRFIF-NH2)
Relative activity Kinase Inhibition (CDK2/cyclin A; Leu157 substitutions): <0.1 | Relative activity Cyclin A Binding (Cyclin A; Leu157 substitutions): <0.1

H-His-Ala-Lys-Arg-Arg-Val-Ile Phe-NH2 (H-HAKRRVIF-NH2)
Relative activity Kinase Inhibition (CDK2/cyclin A; Leu157 substitutions): <0.1 | Relative activity Cyclin A Binding (Cyclin A; Leu157 substitutions): <0.1

H-His-Ala-Lys-Arg-Asn-Leu-Ile Phe-NH2 (H-HAKRNLIF-NH2)
Relative activity Kinase Inhibition (CDK2/cyclin A; Arg156 substitutions): <0.1 | Relative activity Cyclin A Binding (Cyclin A; Arg156 substitutions): <0.1

H-His-Ala-Lys-Arg-Ser-Leu-Ile Phe-NH2 (H-HAKRSLIF-NH2)
Relative activity Kinase Inhibition (CDK2/cyclin A; Arg156 substitutions): 0.7 | Relative activity Cyclin A Binding (Cyclin A; Arg156 substitutions): 0.2

H-His-Ala-Lys-Gln-Arg-Leu-Ile Phe-NH2 (H-HAKQRLIF-NH2)
Relative activity Kinase Inhibition (CDK2/cyclin A; Arg155 substitutions): <0.1 | Relative activity Cyclin A Binding (Cyclin A; Arg155 substitutions): <0.1

H-His-Ala-Lys-Lys-Arg-Leu-Ile Phe-NH2 (H-HAKKRLIF-NH2)
Relative activity Kinase Inhibition (CDK2/cyclin A; Arg155 substitutions): 0.8 | Relative activity Cyclin A Binding (Cyclin A; Arg155 substitutions): 0.1

H-His-Ala-Lys-Nle-Arg-Leu-Ile Phe-NH2 (H-HAKHRLIF-NH2; not fully specified (residue 4); printed as H-His-Ala-Lys-Nle-Arg-Leu-Ile Phe-NH2)
Relative activity Kinase Inhibition (CDK2/cyclin A; Arg155 substitutions): <0.1 | Relative activity Cyclin A Binding (Cyclin A; Arg155 substitutions): <0.1

H-His-Ala-Nle-Arg-Arg-Leu-Ile Phe-NH2 (H-HA[Nle]RRLIF-NH2; SMILES CCCC[C@H](NC(=O)[C@H](C)NC(=O)[C@@H](N)Cc1c[nH]cn1)C(=O)N[C@@H](CCCNC(=N)N)C(=O)N[C@@H](CCCNC(=N)N)C(=O)N[C@@H](CC(C)C)C(=O)N[C@H](C(=O)N[C@@H](Cc1ccccc1)C(N)=O)[C@@H](C)CC)
Relative activity Kinase Inhibition (CDK2/cyclin A; Lys154 substitutions): 03 | Relative activity Cyclin A Binding (Cyclin A; Lys154 substitutions): 0.2

H-His-Bug-Lys-Arg-Arg-Leu-Ile Phe-NH2 (H-H[Tle]KRRLIF-NH2; SMILES CC[C@H](C)[C@H](NC(=O)[C@H](CC(C)C)NC(=O)[C@H](CCCNC(=N)N)NC(=O)[C@H](CCCNC(=N)N)NC(=O)[C@H](CCCCN)NC(=O)[C@@H](NC(=O)[C@@H](N)Cc1c[nH]cn1)C(C)(C)C)C(=O)N[C@@H](Cc1ccccc1)C(N)=O)
Relative activity Kinase Inhibition (CDK2/cyclin A; Ala153 substitutions): 0.2 | Relative activity Cyclin A Binding (Cyclin A; Ala153 substitutions): 1.2

H-His-Gly-Lys-Arg-Arg-Leu-Ile Phe-NH2 (H-HGKRRLIF-NH2)
Relative activity Kinase Inhibition (CDK2/cyclin A; Ala153 substitutions): 0.1 | Relative activity Cyclin A Binding (Cyclin A; Ala153 substitutions): 0.1

H-His-Ile-Lys-Arg-Arg-Leu-Ile Phe-NH2 (H-HIKRRLIF-NH2)
Relative activity Kinase Inhibition (CDK2/cyclin A; Ala153 substitutions): 0.5 | Relative activity Cyclin A Binding (Cyclin A; Ala153 substitutions): 0.2

H-His-Nva-Lys-Arg-Arg.Leu-Ile Phe.NH2 (H-H[Nva]KRRLIF-NH2; SMILES CCC[C@H](NC(=O)[C@@H](N)Cc1c[nH]cn1)C(=O)N[C@@H](CCCCN)C(=O)N[C@@H](CCCNC(=N)N)C(=O)N[C@@H](CCCNC(=N)N)C(=O)N[C@@H](CC(C)C)C(=O)N[C@H](C(=O)N[C@@H](Cc1ccccc1)C(N)=O)[C@@H](C)CC)
Relative activity Kinase Inhibition (CDK2/cyclin A; Ala153 substitutions): <0.1 | Relative activity Cyclin A Binding (Cyclin A; Ala153 substitutions): <0.1

H-His-Phe-Lys-Arg-Arg-Leu-Ile Phe-NH2 (H-HFKRRLIF-NH2)
Relative activity Kinase Inhibition (CDK2/cyclin A; Ala153 substitutions): 0.5 | Relative activity Cyclin A Binding (Cyclin A; Ala153 substitutions): 0.2

H-His-Phg-Lys-Arg-Arg-Leu-Ile Phe-NH2 (H-H[Phg]KRRLIF-NH2; not fully specified; printed as H-His-Phg-Lys-Arg-Arg-Leu-Ile Phe-NH2)
Relative activity Kinase Inhibition (CDK2/cyclin A; Ala153 substitutions): <0.1 | Relative activity Cyclin A Binding (Cyclin A; Ala153 substitutions): <0.1

H-His-Val-Lys-Arg-Arg-Leu-Ile Phe-NH2 (H-HVKRRLIF-NH2)
Relative activity Kinase Inhibition (CDK2/cyclin A; Ala153 substitutions): 2 | Relative activity Cyclin A Binding (Cyclin A; Ala153 substitutions): 1.7

H-Hse-Ala-Lys-Arg-Arg-Leu-Ile Phe-NH2 (XAKRRLIF; N-terminal Hse, C-terminal amide)
Relative activity Kinase Inhibition (CDK2/cyclin A; His152 substitutions): 2 | Relative activity Cyclin A Binding (Cyclin A; His152 substitutions): 2

H-Phe-Ala-Lys-Arg-Arg-Leu.Ile Phe-NH2 (H-FAKRRLIF-NH2)
Relative activity Kinase Inhibition (CDK2/cyclin A; His152 substitutions): 3 | Relative activity Cyclin A Binding (Cyclin A; His152 substitutions): 1

H-Pya-Ala-Lys-Arg-Arg-Leu-Ile Phe-NH2 (XAKRRLIF; N-terminal Pya, C-terminal amide)
Relative activity Kinase Inhibition (CDK2/cyclin A; His152 substitutions): <0.1 | Relative activity Cyclin A Binding (Cyclin A; His152 substitutions): 0.2

H-Thi-Ala-Lys-Arg-Arg-Leu-Ile Phe-NH2 (XAKRRLIF; N-terminal Thi, C-terminal amide)
Relative activity Kinase Inhibition (CDK2/cyclin A; His152 substitutions): 2 | Relative activity Cyclin A Binding (Cyclin A; His152 substitutions): 0.2

HAKRRLAF-NH2
Relative activity Kinase Inhibition (CDK2/cyclin A; Ile158 substitutions): 0.3 | Relative activity Cyclin A Binding (Cyclin A; Ile158 substitutions): 0.8

HAKRRLF-NH2 [H-His-Ala-Lys-Arg-Arg-Leu-Phe-NH2]
Relative activity Kinase Inhibition (CDK2/cyclin A; Ile158 substitutions): <0.1 | Relative activity Cyclin A Binding (Cyclin A; Ile158 substitutions): <0.1

HAKRRLFF-NH2
Relative activity Kinase Inhibition (CDK2/cyclin A; Ile158 substitutions): 0.4 | Relative activity Cyclin A Binding (Cyclin A; Ile158 substitutions): 0.4
